From patent US20180155451A1 (published 2018)

T1: FcγRIIb (human, UniProt P31994 43-217)
T1 construct: extracellular domain; Soluble extracellular domain with C-terminal His tag, used as analyte in Biacore; also called FcgRIIb; 2b; not shown: His tag attached to the C terminus
T1 sequence (looked up): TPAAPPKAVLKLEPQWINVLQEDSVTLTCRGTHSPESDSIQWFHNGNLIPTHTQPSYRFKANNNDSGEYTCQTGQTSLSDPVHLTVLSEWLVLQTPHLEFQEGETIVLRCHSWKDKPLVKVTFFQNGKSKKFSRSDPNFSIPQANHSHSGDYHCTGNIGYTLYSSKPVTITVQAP


Key:
FcγRIIb = biological target: T1, FcγRIIb; assay: SPR (Biacore), antibody captured on antigen peptide, FcγR as analyte; relative to GpH7-A5/GpH7-B3/GpL16-k0 = 100
FcγRIa [1] = biological target: T2, FcγRIa (human, UniProt P12314 16-292); assay: as above
T2 construct: extracellular domain; Soluble extracellular domain with C-terminal His tag, used as analyte in Biacore; also called FcgRI; 1a; not shown: His tag attached to the C terminus

FcγRIa [2] = biological target: T2, FcγRIa; assay: SPR (Biacore); He/Con_1a divided by He/Con_2b (FcγRIa against FcγRIIb)

T2 sequence (P12314 16-292): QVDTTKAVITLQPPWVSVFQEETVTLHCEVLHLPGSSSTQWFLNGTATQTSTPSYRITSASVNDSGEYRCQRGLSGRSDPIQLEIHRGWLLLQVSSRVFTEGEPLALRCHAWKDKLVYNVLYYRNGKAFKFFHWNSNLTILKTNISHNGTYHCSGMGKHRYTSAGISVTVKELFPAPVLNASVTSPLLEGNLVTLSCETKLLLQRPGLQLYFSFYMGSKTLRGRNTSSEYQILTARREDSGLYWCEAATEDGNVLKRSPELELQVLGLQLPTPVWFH

Binder	He/Con_2b (FcγRIIb)	He/Con_1a (FcγRIa [1])	Ia/IIb He_1a/2b (FcγRIa [2]) [ratio]
GpH7-A5/GpH7-B3 variant P238_10E/GpL16-k0 (antibody, human IgG1, kappa, Heterodimerized IgG1; mutation in the GpH7-B3 H chain only; also called He Ab) heavy 1: not shown heavy 2: not shown light: DIVMTQSPLSLPVTPGEPASISCQASESLVHSNRNTYLHWYLQKPGQSPQLLIYKVSNRFSGVPDRFSGSGSGTDFTLKISRVEAEDVGVYYCSQNTHVPPTFGQGTKVEIERTVAAPSVFIFPPSDEQLKSGTASVVCLLNNFYPREAKVQWKVDNALQSGNSQESVTEQDSKDSTYSLSSTLTLSKADYEKHKVYACEVTHQGLSSPVTKSFNRGEC	232 % of control	102 % of control	0.44
GpH7-A5/GpH7-B3 variant S239_10E/GpL16-k0 (antibody, human IgG1, kappa, Heterodimerized IgG1; mutation in the GpH7-B3 H chain only; also called He Ab) heavy 1: not shown heavy 2: not shown light: DIVMTQSPLSLPVTPGEPASISCQASESLVHSNRNTYLHWYLQKPGQSPQLLIYKVSNRFSGVPDRFSGSGSGTDFTLKISRVEAEDVGVYYCSQNTHVPPTFGQGTKVEIERTVAAPSVFIFPPSDEQLKSGTASVVCLLNNFYPREAKVQWKVDNALQSGNSQESVTEQDSKDSTYSLSSTLTLSKADYEKHKVYACEVTHQGLSSPVTKSFNRGEC	181 % of control	105 % of control	0.58
GpH7-A5/GpH7-B3 variant S239_08L/GpL16-k0 (antibody, human IgG1, kappa, Heterodimerized IgG1; mutation in the GpH7-B3 H chain only; also called He Ab) heavy 1: not shown heavy 2: not shown light: DIVMTQSPLSLPVTPGEPASISCQASESLVHSNRNTYLHWYLQKPGQSPQLLIYKVSNRFSGVPDRFSGSGSGTDFTLKISRVEAEDVGVYYCSQNTHVPPTFGQGTKVEIERTVAAPSVFIFPPSDEQLKSGTASVVCLLNNFYPREAKVQWKVDNALQSGNSQESVTEQDSKDSTYSLSSTLTLSKADYEKHKVYACEVTHQGLSSPVTKSFNRGEC	140 % of control	99.8 % of control	0.71
GpH7-A5/GpH7-B3 variant S267_03V/GpL16-k0 (antibody, human IgG1, kappa, Heterodimerized IgG1; mutation in the GpH7-B3 H chain only; also called He Ab) heavy 1: not shown heavy 2: not shown light: DIVMTQSPLSLPVTPGEPASISCQASESLVHSNRNTYLHWYLQKPGQSPQLLIYKVSNRFSGVPDRFSGSGSGTDFTLKISRVEAEDVGVYYCSQNTHVPPTFGQGTKVEIERTVAAPSVFIFPPSDEQLKSGTASVVCLLNNFYPREAKVQWKVDNALQSGNSQESVTEQDSKDSTYSLSSTLTLSKADYEKHKVYACEVTHQGLSSPVTKSFNRGEC	192 % of control	106 % of control	0.55
GpH7-A5/GpH7-B3 variant S239_01G/GpL16-k0 (antibody, human IgG1, kappa, Heterodimerized IgG1; mutation in the GpH7-B3 H chain only; also called He Ab) heavy 1: not shown heavy 2: not shown light: DIVMTQSPLSLPVTPGEPASISCQASESLVHSNRNTYLHWYLQKPGQSPQLLIYKVSNRFSGVPDRFSGSGSGTDFTLKISRVEAEDVGVYYCSQNTHVPPTFGQGTKVEIERTVAAPSVFIFPPSDEQLKSGTASVVCLLNNFYPREAKVQWKVDNALQSGNSQESVTEQDSKDSTYSLSSTLTLSKADYEKHKVYACEVTHQGLSSPVTKSFNRGEC	144 % of control	101 % of control	0.7
GpH7-A5/GpH7-B3 variant S267_02A/GpL16-k0 (antibody, human IgG1, kappa, Heterodimerized IgG1; mutation in the GpH7-B3 H chain only; also called He Ab) heavy 1: not shown heavy 2: not shown light: DIVMTQSPLSLPVTPGEPASISCQASESLVHSNRNTYLHWYLQKPGQSPQLLIYKVSNRFSGVPDRFSGSGSGTDFTLKISRVEAEDVGVYYCSQNTHVPPTFGQGTKVEIERTVAAPSVFIFPPSDEQLKSGTASVVCLLNNFYPREAKVQWKVDNALQSGNSQESVTEQDSKDSTYSLSSTLTLSKADYEKHKVYACEVTHQGLSSPVTKSFNRGEC	243 % of control	109 % of control	0.45
GpH7-A5/GpH7-B3 variant P238_15Y/GpL16-k0 (antibody, human IgG1, kappa, Heterodimerized IgG1; mutation in the GpH7-B3 H chain only; also called He Ab) heavy 1: not shown heavy 2: not shown light: DIVMTQSPLSLPVTPGEPASISCQASESLVHSNRNTYLHWYLQKPGQSPQLLIYKVSNRFSGVPDRFSGSGSGTDFTLKISRVEAEDVGVYYCSQNTHVPPTFGQGTKVEIERTVAAPSVFIFPPSDEQLKSGTASVVCLLNNFYPREAKVQWKVDNALQSGNSQESVTEQDSKDSTYSLSSTLTLSKADYEKHKVYACEVTHQGLSSPVTKSFNRGEC	218 % of control	101 % of control	0.46
GpH7-A5/GpH7-B3 variant S239_09D/GpL16-k0 (antibody, human IgG1, kappa, Heterodimerized IgG1; mutation in the GpH7-B3 H chain only; also called He Ab) heavy 1: not shown heavy 2: not shown light: DIVMTQSPLSLPVTPGEPASISCQASESLVHSNRNTYLHWYLQKPGQSPQLLIYKVSNRFSGVPDRFSGSGSGTDFTLKISRVEAEDVGVYYCSQNTHVPPTFGQGTKVEIERTVAAPSVFIFPPSDEQLKSGTASVVCLLNNFYPREAKVQWKVDNALQSGNSQESVTEQDSKDSTYSLSSTLTLSKADYEKHKVYACEVTHQGLSSPVTKSFNRGEC	206 % of control	101 % of control	0.49

Next, values leading:

He/Con_2b (FcγRIIb)	He/Con_1a (FcγRIa [1])	Ia/IIb He_1a/2b (FcγRIa [2]) [ratio]	Binder
251 % of control	99.7 % of control	0.4	GpH7-A5/GpH7-B3 variant V266_06M/GpL16-k0 (antibody, human IgG1, kappa, Heterodimerized IgG1; mutation in the GpH7-B3 H chain only; also called He Ab) heavy 1: not shown heavy 2: not shown light: DIVMTQSPLSLPVTPGEPASISCQASESLVHSNRNTYLHWYLQKPGQSPQLLIYKVSNRFSGVPDRFSGSGSGTDFTLKISRVEAEDVGVYYCSQNTHVPPTFGQGTKVEIERTVAAPSVFIFPPSDEQLKSGTASVVCLLNNFYPREAKVQWKVDNALQSGNSQESVTEQDSKDSTYSLSSTLTLSKADYEKHKVYACEVTHQGLSSPVTKSFNRGEC
218 % of control	102 % of control	0.47	GpH7-A5/GpH7-B3 variant S267_19Q/GpL16-k0 (antibody, human IgG1, kappa, Heterodimerized IgG1; mutation in the GpH7-B3 H chain only; also called He Ab) heavy 1: not shown heavy 2: not shown light: DIVMTQSPLSLPVTPGEPASISCQASESLVHSNRNTYLHWYLQKPGQSPQLLIYKVSNRFSGVPDRFSGSGSGTDFTLKISRVEAEDVGVYYCSQNTHVPPTFGQGTKVEIERTVAAPSVFIFPPSDEQLKSGTASVVCLLNNFYPREAKVQWKVDNALQSGNSQESVTEQDSKDSTYSLSSTLTLSKADYEKHKVYACEVTHQGLSSPVTKSFNRGEC
210 % of control	106 % of control	0.51	GpH7-A5/GpH7-B3 variant S267_06M/GpL16-k0 (antibody, human IgG1, kappa, Heterodimerized IgG1; mutation in the GpH7-B3 H chain only; also called He Ab) heavy 1: not shown heavy 2: not shown light: DIVMTQSPLSLPVTPGEPASISCQASESLVHSNRNTYLHWYLQKPGQSPQLLIYKVSNRFSGVPDRFSGSGSGTDFTLKISRVEAEDVGVYYCSQNTHVPPTFGQGTKVEIERTVAAPSVFIFPPSDEQLKSGTASVVCLLNNFYPREAKVQWKVDNALQSGNSQESVTEQDSKDSTYSLSSTLTLSKADYEKHKVYACEVTHQGLSSPVTKSFNRGEC
379 % of control	106 % of control	0.28	GpH7-A5/GpH7-B3 variant S267_10E/GpL16-k0 (antibody, human IgG1, kappa, Heterodimerized IgG1; mutation in the GpH7-B3 H chain only; also called He Ab) heavy 1: not shown heavy 2: not shown light: DIVMTQSPLSLPVTPGEPASISCQASESLVHSNRNTYLHWYLQKPGQSPQLLIYKVSNRFSGVPDRFSGSGSGTDFTLKISRVEAEDVGVYYCSQNTHVPPTFGQGTKVEIERTVAAPSVFIFPPSDEQLKSGTASVVCLLNNFYPREAKVQWKVDNALQSGNSQESVTEQDSKDSTYSLSSTLTLSKADYEKHKVYACEVTHQGLSSPVTKSFNRGEC
310 % of control	110 % of control	0.35	GpH7-A5/GpH7-B3 variant S267_09D/GpL16-k0 (antibody, human IgG1, kappa, Heterodimerized IgG1; mutation in the GpH7-B3 H chain only; also called He Ab) heavy 1: not shown heavy 2: not shown light: DIVMTQSPLSLPVTPGEPASISCQASESLVHSNRNTYLHWYLQKPGQSPQLLIYKVSNRFSGVPDRFSGSGSGTDFTLKISRVEAEDVGVYYCSQNTHVPPTFGQGTKVEIERTVAAPSVFIFPPSDEQLKSGTASVVCLLNNFYPREAKVQWKVDNALQSGNSQESVTEQDSKDSTYSLSSTLTLSKADYEKHKVYACEVTHQGLSSPVTKSFNRGEC
192 % of control	100 % of control	0.52	GpH7-A5/GpH7-B3 variant S267_07I/GpL16-k0 (antibody, human IgG1, kappa, Heterodimerized IgG1; mutation in the GpH7-B3 H chain only; also called He Ab) heavy 1: not shown heavy 2: not shown light: DIVMTQSPLSLPVTPGEPASISCQASESLVHSNRNTYLHWYLQKPGQSPQLLIYKVSNRFSGVPDRFSGSGSGTDFTLKISRVEAEDVGVYYCSQNTHVPPTFGQGTKVEIERTVAAPSVFIFPPSDEQLKSGTASVVCLLNNFYPREAKVQWKVDNALQSGNSQESVTEQDSKDSTYSLSSTLTLSKADYEKHKVYACEVTHQGLSSPVTKSFNRGEC
